For test [1], the target named is ^C81/C96RIDC1 (the C81/C96 double mutant of Rosetta Interface Designed Cytochrome 1) (UniProt P0ABE7). Briefly: AUC.
The target is the same in test [2]. Briefly: cross-linking.

Results on one substance are retold here after article PMC4289141.

One may read the stoichiometry N as the number of molecules, sites or subunits per partner or assembly. Substance “^C81/C96RIDC1 (the C81/C96 double mutant of Rosetta Interface Designed Cytochrome 1) (from UniProt P0ABE7 23-128) (natural protein)” returned a stoichiometry N in test [1] of 4. In test [2], this substance returned an abundance of polymeric species (19:1 GSH/GSSG, 1 mM, 1 day) of 13%; an abundance of the tetramer (air oxidation, room temperature) of 48%; a yield of the tetramer (19:1 GSH/GSSG, 1 mM, 1 day) of 63%.
